Source: paper PMC4420465, “A Novel Type II NAD^+-Specific Isocitrate Dehydrogenase from the Marine Bacterium Congregibacter litoralis KT71” (PLoS ONE, 2015)

What was measured:
[1] = molecular target: Congregibacter litoralis KT71 NAD+-specific isocitrate dehydrogenase (recombinant ClIDH) (Congregibacter litoralis KT71); assay: SEC; gel filtration on a 10/300 Superdex 200 column, 0.05 M potassium phosphate buffer (pH 7.0), 0.15 M NaCl, 0.01% sodium azide; calibrated with ovalbumin, conalbumin, aldolase, ferritin, thyroglobulin
[2] = molecular target: Congregibacter litoralis KT71 NAD+-specific isocitrate dehydrogenase (recombinant ClIDH) (Congregibacter litoralis KT71); assay: AUC; sedimentation velocity, Beckman XL-A, 20°C, 116,000 g, continuous c(s) distribution; protein of more than 90% purity after gel filtration; single run
purified protein [3] = substrate: NC(=O)c1ccc[n+]([C@@H]2O[C@H](COP(=O)(O)OP(=O)(O)OC[C@H]3O[C@@H](n4cnc5c(N)ncnc54)[C@H](O)[C@@H]3O)[C@@H](O)[C@H]2O)c1; assay: purified protein; type: biochemical, Congregibacter litoralis; settings: Mn2+ 2 mM, DL-isocitrate 1.5 mM, 35 mM Tris-HCl pH 7.5, 25°C, varied: cofactor
purified protein [4] = substrate: O=C(O)CC(C(=O)O)C(O)C(=O)O; assay: purified protein; type: biochemical, Congregibacter litoralis; settings: Mn2+ 2 mM, NAD+ 1 mM, 35 mM Tris-HCl pH 7.5, 25°C
purified protein [5] = substrate: NC(=O)c1ccc[n+]([C@@H]2O[C@H](COP(=O)(O)OP(=O)(O)OC[C@H]3O[C@@H](n4cnc5c(N)ncnc54)[C@H](OP(=O)(O)O)[C@@H]3O)[C@@H](O)[C@H]2O)c1; assay: purified protein; type: biochemical, Congregibacter litoralis; settings: Mn2+ 2 mM, DL-isocitrate 1.5 mM, 35 mM Tris-HCl pH 7.5, 25°C, varied: cofactor

**Q.** What does the source list for “Congregibacter litoralis KT71 NAD+-specific isocitrate dehydrogenase (recombinant ClIDH) (enzyme)”?
**A.** stoichiometry N [1]: 6; stoichiometry N [2]: 6

B1: ClIDH (Congregibacter litoralis KT71) (protein)
chain: MSNKIKVEKPLVILHGDEMAQIAFERLLEQFVTSRLDINLLEVDLSAEKRFTTNGQVVLDAIDALIEHGVGIKNAGMTVNRSQLDELLAKYPDVKESELDKLATKSPNGAIRKGIGGNITREDIEFQNLTSVRPDWIDRDIEVDTMDSGGLDFSYSELSNATGVAKVMFVGSSGDPVELHRRTLKKGDPWMLANNSLEEVEAWAHRFFQRALDEKRDIYLGLKDTVVPGYDGVMRAAIEAIYERDYKEKVAAAGLKYHYELIDAQAARIVSNPPERALWGVPDNVSGMKLYKLVQQLKHYGLPERKANVSISRMSAGGGDQYGSYNTPAPEDGIIKVVVDGVEKHARMVKANDPILFMSNDRDAIKDWVKQVFKDASINKKEVYFGLKREFVNYDEVYSSIILEIRKELAALDTPPPSFMIMRPSRQLSKMICDPPRWGLYPAQNLDGDIFSDISAALGGSLATASSVIKSKDGTLLYEAPHGTAHDLYLRYLETDGKEAHFNSSALIFAVANALEEMARREENEALADYAQRLKAALIDTVAQGTITGDLKGKTLDPESENVVDMYGFLDAIEANLNAS
notes: full length 580 residues, 6xHis tag (pET-28b, upstream, kept), E. coli Rosetta (DE3), about 64 kDa subunit, homohexamer
**Q.** Which Km (purified protein [3]) does the source give for B1 here?
**A.** 309.1 ± 11.2 µM

**Q.** What about the kcat (purified protein [3]) of the same molecule?
**A.** 84.7 s⁻¹

**Q.** And the kcat/Km (purified protein [3])?
**A.** 270000 M⁻¹ s⁻¹

**Q.** And the Km (purified protein [4])?
**A.** 90.8 µM

B2: ClIDH (Congregibacter litoralis KT71; D487R/L488H) (protein)
chain: MSNKIKVEKPLVILHGDEMAQIAFERLLEQFVTSRLDINLLEVDLSAEKRFTTNGQVVLDAIDALIEHGVGIKNAGMTVNRSQLDELLAKYPDVKESELDKLATKSPNGAIRKGIGGNITREDIEFQNLTSVRPDWIDRDIEVDTMDSGGLDFSYSELSNATGVAKVMFVGSSGDPVELHRRTLKKGDPWMLANNSLEEVEAWAHRFFQRALDEKRDIYLGLKDTVVPGYDGVMRAAIEAIYERDYKEKVAAAGLKYHYELIDAQAARIVSNPPERALWGVPDNVSGMKLYKLVQQLKHYGLPERKANVSISRMSAGGGDQYGSYNTPAPEDGIIKVVVDGVEKHARMVKANDPILFMSNDRDAIKDWVKQVFKDASINKKEVYFGLKREFVNYDEVYSSIILEIRKELAALDTPPPSFMIMRPSRQLSKMICDPPRWGLYPAQNLDGDIFSDISAALGGSLATASSVIKSKDGTLLYEAPHGTAHRHYLRYLETDGKEAHFNSSALIFAVANALEEMARREENEALADYAQRLKAALIDTVAQGTITGDLKGKTLDPESENVVDMYGFLDAIEANLNAS
notes: as for B1
**Q.** What does the source list for B2?
**A.** Km (purified protein [5]): 156.7 ± 4.8 µM; kcat (purified protein [5]): 55.1 s⁻¹; kcat/Km (purified protein [5]): 350000 M⁻¹ s⁻¹; Km (purified protein [3]): 663.8 ± 48.6 µM; kcat (purified protein [3]): 9.7 s⁻¹; kcat/Km (purified protein [3]): 15000 M⁻¹ s⁻¹
